Results on 32 variants are retold here after the RNAGym collection of RNA variant scans (doi:10.7554/elife.80360).

First the molecules themselves.
B1: HDV Ribozyme (parent)
chain: GGCCGGCAUGGUCCCAGCCUCCUCGCUGGCGCCGGCUGGGCAACAUUCCGAGGGGACCGUCCCCUCGGUAAUGGCGAAUGGGACCCA

The variants in the series derive from B1. Briefly: self-cleavage, relative activity (ratio to wild type); higher = more cleavage; co-transcriptional.
On to GGCCGGCAUGGUCCCAGCCUCCUCGCUGCCGCCGGCUGGGCAACAUUCCGAGGGGACCGUCCCCUGGGUAAUGGCGAAUGGGACCCA [G29C C66G], for which the self-cleavage stood at 0. Under GGCCGGCAUGUUCCCAGCCUCCUCGCUGGCGCCGGCUGGGCAACAUUCCGAGGGGACCGUCCCCUCGGUAAUGGCGAAUGGGACCUA [G11U C86U] stands 0.415; under GGCCGGCAUGGUCCCAGCCUCCUCGCUGGCGCCGGCUGGGCAACAUUCCUAGGGUACCGUCCCCUCGGUAAUGGCGAAUGGGACCCA [G50U G55U], 0.906; under GGCCUGCAUGGUCCCAGCCUCCUCGCUGGCGCCGGCUGGGCAACAUUCCGAGGGGACGGUCCCCUCGGUAAUGGCGAAUGGGACCCA [G5U C58G], 0.262. GGCCGGCAUGGUCCCAGCCUCCUCGCUGGCGCCGGCUGGGCAACAUUCCGAGGGGACCCUCCCUUCGGUAAUGGCGAAUGGGACCCA [G59C C64U]: the self-cleavage was 1.14. Under GGCCGGCAUGGUCCCAGCCUCCUCGCUGGCGCCAGCUGGGCAACAUUCCGAGGGCACCGUCCCCUCGGUAAUGGCGAAUGGGACCCA [G34A G55C] stands 0.141; under GGCCGGCAUGGUCCCAGCCUCCUCGCUGGCGCCGGCUGGGCCACAUUCCGAGGGGACCGUCCCCUAGGUAAUGGCGAAUGGGACCCA [A42C C66A], 0.332; under GGCCGGCAUGGUCCCAGCCUCCUCGCUGGCGUCGGCUGGGCAACAUUCCGAGGGGACCGUCCCCUCGGUAAUGGCGUAUGGGACCCA [C32U A77U], 0.496.

Take GGCCGGGAUGGUCCCAGCCUCCUCGCCGGCGCCGGCUGGGCAACAUUCCGAGGGGACCGUCCCCUCGGUAAUGGCGAAUGGGACCCA [C7G U27C]: the self-cleavage stood at 0.151. GGCCGGCAUGGUCCCAGCCUCCUCGCUGGCGACGGCUGGGCAACAUUCCGAGGGGACCGUUCCCUCGGUAAUGGCGAAUGGGACCCA [C32A C61U]: the self-cleavage came to 0.201.

Take GGCCGGCAUGGUCCAAGCCUCCUCGCUGGCGCCGGCUGGGCAACAGUCCGAGGGGACCGUCCCCUCGGUAAUGGCGAAUGGGACCCA [C15A U46G]: the self-cleavage stood at 0.383. For GGCCGGCAUGGUCCCAGCCUCCUCGCUGGCGCCGGCUGGGCAACAUUCCGAGGGGACGGUCCCCUCGGUUAUGGCGAAUGGGACCCA [C58G A70U] the value was 0.929. Under GGCCGGCAUGGUCCCAGCCUCCUCGCUGGCGCCGGCUGGGCAACAUUCCGAGUGGACCGUCCCCUCGGUAAUGGCGAAUGGGACACA [G53U C85A] stands 0.931; under GGCCGGCAUGGUCCCAGCCUCCUCCCUGGCGCCAGCUGGGCAACAUUCCGAGGGGACCGUCCCCUCGGUAAUGGCGAAUGGGACCCA [G25C G34A], 0.143. GGCCGGCAUGGUCCCAGCCUCCUCGCUGGCGCCGACUGGGCAACAGUCCGAGGGGACCGUCCCCUCGGUAAUGGCGAAUGGGACCCA [G35A U46G]: the self-cleavage worked out at 0. In the case of GGCAGGCAUGGUCCCAGCCUCCUCGCUGGCGCCUGCUGGGCAACAUUCCGAGGGGACCGUCCCCUCGGUAAUGGCGAAUGGGACCCA [C4A G34U], the self-cleavage turned out to be 0.831. For GGCCGGCAUGGUCCCAGCCUCCUCGCUGGCGCUGGCUGGGCAACAUUCCGAGGGGACCGUCCCCUCGGUAAUGGCGAAUGGGACCCG [C33U A87G] the value was 0.79; for GCCCGGCAUGGUCUCAGCCUCCUCGCUGGCGCCGGCUGGGCAACAUUCCGAGGGGACCGUCCCCUCGGUAAUGGCGAAUGGGACCCA [G2C C14U], 0.0504. With CGCCGGCAAGGUCCCAGCCUCCUCGCUGGCGCCGGCUGGGCAACAUUCCGAGGGGACCGUCCCCUCGGUAAUGGCGAAUGGGACCCA [G1C U9A], the self-cleavage amounted to 0.0978. For GGCCGGCAUGGUCCCAGCUUCCUCGCUGGCCCCGGCUGGGCAACAUUCCGAGGGGACCGUCCCCUCGGUAAUGGCGAAUGGGACCCA [C19U G31C], the self-cleavage worked out at 0.0845. For UGCCGGCAUUGUCCCAGCCUCCUCGCUGGCGCCGGCUGGGCAACAUUCCGAGGGGACCGUCCCCUCGGUAAUGGCGAAUGGGACCCA [G1U G10U] the value was 0.336. For GGCCGGCAUGAUCCCAGCCUCGUCGCUGGCGCCGGCUGGGCAACAUUCCGAGGGGACCGUCCCCUCGGUAAUGGCGAAUGGGACCCA [G11A C22G] the value was 0.0193. For GGCCGGCAUGGUCCCAGCCUCCUCGCUGGCGCCGGCUGGGCAACAUUCCGAGGGUACCGUACCCUCGGUAAUGGCGAAUGGGACCCA [G55U C61A], the self-cleavage came out at 1.09.

For the variant GGCCGGCAUGGUCCCAGCCUCCUCGAUGGCGCCGGCUGGGCAACAUUCCGAGGGGACCGUACCCUCGGUAAUGGCGAAUGGGACCCA [C26A C61A], the self-cleavage turned out to be 0.865.

For the variant GGCCGGCAUGGUCCCAGCCUCCUGGCUGGCGCCGGCUGGGCAACAUUCCGAGGGGACCGUCCCCUCGGUAAUGGCGAACGGGACCCA [C24G U79C], the self-cleavage was 0.165. For GGCCGUCAUGGUCCCAGCCUCCUCGCUGGCGCCGGCUGGGCAACAUUCCGAGGGGACCGUCCCCUCGGUAAUGGCGACUGGGACCCA [G6U A78C] the value was 0.252; for GGCCGGCAUGGUCCCAGCCCCCUCGCUGGCGCCGGCUGGGCAACAUUCCGAGGGGACCGUCCCCUCGGUAAUUGCGAAUGGGACCCA [U20C G73U], 0.0875.

Take GGCCGGCAUGGUCCCACCCUCCUCGCUGGCGCCGGCUGGGCAACAUUCCGAGGGGACCCUCCCCUCGGUAAUGGCGAAUGGGACCCA [G17C G59C]: the self-cleavage turned out to be 0.243. In the case of GGCCGGCAUGGUCCCUGCCUCCUCGCUGGCGCCGGCUGGGCAACAUUCCGAGGGGACCGUCCCCUCGGUAAUGGCGAGUGGGACCCA [A16U A78G], the self-cleavage was 0.332. Under GGCCGGCAUGGUCCCAGCCUCCUCGCGGGCGCCGGCUGGGCAACAUUCCGCGGGGACCGUCCCCUCGGUAAUGGCGAAUGGGACCCA [U27G A51C] stands 0.906.

As for GGCCGGCAUGGUCCCAGCCUCCUCGCUGGCGCCGGCUGGGCAACAUUCCGAGGGGACCGGCCCCUCGGUAAUGGCGAAUUGGACCCA [U60G G80U], the self-cleavage worked out at 0.277.

GGCCGGCAUGGUCGCAGCCUCCUCGCUGGCGCCGGCUGGGCAACAUUCUGAGGGGACCGUCCCCUCGGUAAUGGCGAAUGGGACCCA [C14G C49U]: the self-cleavage came to 0.529.
